PMC10786891, “Massively parallel profiling of RNA-targeting CRISPR-Cas13d”
Positions count from the first letter of the chain named. In names and notes the source's numbering stands.

Target: T1, EsCas13d, nuclease-dead (Eubacterium siraeum, UniProt B0MS50, R295A;H300A;R849A;H854A)
T1 sequence: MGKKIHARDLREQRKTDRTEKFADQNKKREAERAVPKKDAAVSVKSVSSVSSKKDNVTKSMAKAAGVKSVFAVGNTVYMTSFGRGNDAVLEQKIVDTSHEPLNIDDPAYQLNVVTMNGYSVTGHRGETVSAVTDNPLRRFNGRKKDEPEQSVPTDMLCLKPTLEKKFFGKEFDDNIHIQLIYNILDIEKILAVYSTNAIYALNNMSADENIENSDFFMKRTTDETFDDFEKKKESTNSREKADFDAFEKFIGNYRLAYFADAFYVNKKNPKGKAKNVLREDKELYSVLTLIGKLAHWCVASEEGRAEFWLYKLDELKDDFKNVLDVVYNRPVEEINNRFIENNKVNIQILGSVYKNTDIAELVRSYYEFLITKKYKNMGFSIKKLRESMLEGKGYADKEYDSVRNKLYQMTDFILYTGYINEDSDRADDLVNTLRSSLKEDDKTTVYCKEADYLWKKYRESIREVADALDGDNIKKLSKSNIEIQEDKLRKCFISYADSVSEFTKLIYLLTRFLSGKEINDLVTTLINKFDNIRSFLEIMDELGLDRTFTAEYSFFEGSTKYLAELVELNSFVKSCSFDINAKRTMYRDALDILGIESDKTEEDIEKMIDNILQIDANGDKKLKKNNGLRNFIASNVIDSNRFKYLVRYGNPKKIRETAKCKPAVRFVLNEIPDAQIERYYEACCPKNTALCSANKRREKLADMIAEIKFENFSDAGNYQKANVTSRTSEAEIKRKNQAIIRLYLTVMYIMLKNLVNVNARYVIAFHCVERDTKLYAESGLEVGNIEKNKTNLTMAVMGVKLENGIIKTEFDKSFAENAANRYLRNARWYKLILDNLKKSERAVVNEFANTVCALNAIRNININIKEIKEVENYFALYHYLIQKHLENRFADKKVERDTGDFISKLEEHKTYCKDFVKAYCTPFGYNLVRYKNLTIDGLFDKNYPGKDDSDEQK
Experiment: crRNA (strand 1, pre-loaded); Mg2+; 40 mM Tris-HCl pH 7.5, 150 mM NaCl, 6 mM MgCl2, 1 mM DTT, 0.1% Tween-20, 0.2 mg/ml BSA; 25 C; 10 min per concentration, then washed
Conditions: tags: His6-TwinStrep-SUMO cleaved; N-terminal SNAP kept (SNAP-Surface 488); label: 3' end held by stalled T7 RNA polymerase

B1: target 1 insA 3' of 7,insU 3' of 1 (mixed)
RNA 1: CACCCGUGCAAAAAUGCAGGGGUCUAAAACUGAGCGGAUAACCUCUCUAUGG
RNA 2: GGGAAUGGAUCCACAUCUACGAAUUCGUACCAUAGAGAGGUUAUCACGCUCAUCCGAGAUCGGAAGAGCACACGU
Kd: 7.7 ± 0.5 nM

B2: target 1 insG 3' of 18,insC 3' of 1 (mixed)
RNA 1: B1 RNA 1
RNA 2: GGGAAUGGAUCCACAUCUACGAAUUCGUACCAUAGGAGAGGUUAUCCGCUCACCCGAGAUCGGAAGAGCACACGU
Kd: 52 ± 4 nM

B3: target 1 A1C,G12C (mixed)
RNA 1: B1 RNA 1
RNA 2: GGGAAUGGAUCCACAUCUACGAAUUCGUACCAUAGAGAGCUUAUCCGCUCCCCGAGAUCGGAAGAGCACACGU
Kd: 19 ± 2.1 nM

B4: target 1 A1U,C6U (mixed)
RNA 1: B1 RNA 1
RNA 2: B3 RNA 2 with C40G, C46U, C51U
Kd: 11.4 ± 0.9 nM

B5: target 1 insU 3' of 7,insA 3' of 7 (mixed)
RNA 1: B1 RNA 1
RNA 2: B1 RNA 2 with A46U, C47A, G48C, C49G, U50C, C51U, A52C, U53A
Kd: 7.75 ± 0.3 nM

B6: target 1 U8A,G13U (mixed)
RNA 1: B1 RNA 1
RNA 2: B3 RNA 2 with G39U, C40G, U44A, C51A
Kd: 53 ± 8 nM

B7: target 1 insC 3' of 22,insU 3' of 1 (mixed)
RNA 1: B1 RNA 1
RNA 2: B2 RNA 2 with A32C, U33A, A34U, G35A, C53U
Kd: 20.6 ± 1.9 nM

B8: target 1 insA 3' of 19,insU 3' of 6 (mixed)
RNA 1: B1 RNA 1
RNA 2: B2 RNA 2 with G35A, G48U, C49G, U50C, C51U, A52C, C53A
Kd: 22.9 ± 1.6 nM

B9: target 1 A1U,A20C (mixed)
RNA 1: B1 RNA 1
RNA 2: B3 RNA 2 with A32C, C40G, C51U
Kd: 36 ± 8 nM

B10: target 1 G12C (mixed)
RNA 1: B1 RNA 1
RNA 2: B3 RNA 2 with C51A
Kd: 8.3 ± 0.7 nM

B11: target 1 insG 3' of 16,insG 3' of 10 (mixed)
RNA 1: B1 RNA 1
RNA 2: GGGAAUGGAUCCACAUCUACGAAUUCGUACCAUAGAGGAGGUUGAUCCGCUCACCGAGAUCGGAAGAGCACACGU
Kd: 31.2 ± 2.2 nM

B12: target 1 insG 3' of 18,insG 3' of 1 (mixed)
RNA 1: B1 RNA 1
RNA 2: B2 RNA 2 with C53G
Kd: 55 ± 10 nM

B13: target 1 insU 3' of 15,insA 3' of 13 (mixed)
RNA 1: B1 RNA 1
RNA 2: B11 RNA 2 with G38U, G41A, U42G, G44U
Kd: 10.2 ± 0.7 nM

B14: target 1 C6G,A9U (mixed)
RNA 1: B1 RNA 1
RNA 2: B3 RNA 2 with C40G, A43U, C46G, C51A
Kd: 6.92 ± 0.27 nM

B15: target 1 insA 3' of 21,insA 3' of 12 (mixed)
RNA 1: B1 RNA 1
RNA 2: B11 RNA 2 with U33A, A34U, G35A, A36G, G37A, U42A, G44U
Kd: 48 ± 5 nM

B16: target 1 insC 3' of 17,insA 3' of 17 (mixed)
RNA 1: B1 RNA 1
RNA 2: B11 RNA 2 with A36C, G37A, G38A, A39G, G40A, U42G, G44U
Kd: 20.3 ± 1.5 nM

B17: target 1 A1G,G12C (mixed)
RNA 1: B1 RNA 1
RNA 2: B3 RNA 2 with C51G
Kd: 12.2 ± 0.9 nM

B18: target 1 C7U,C21A (mixed)
RNA 1: B1 RNA 1
RNA 2: B3 RNA 2 with C31A, C40G, C45U, C51A
Kd: 24.7 ± 2.5 nM

B19: target 1 insA 3' of 15,insC 3' of 12 (mixed)
RNA 1: B1 RNA 1
RNA 2: B11 RNA 2 with G38A, U42C, G44U
Kd: 31 ± 6 nM

B20: target 1 insU 3' of 4,insC 3' of 3 (mixed)
RNA 1: B1 RNA 1
RNA 2: B1 RNA 2 with A46C, C47G, G48C, C49U, A52C, U53A
Kd: 76 ± 22 nM

B21: target 1 U11A,G12C (mixed)
RNA 1: B1 RNA 1
RNA 2: B3 RNA 2 with U41A, C51A
Kd: 7.59 ± 0.28 nM

B22: target 1 insU 3' of 18,insG 3' of 9 (mixed)
RNA 1: B1 RNA 1
RNA 2: B11 RNA 2 with G35U, A36G, G37A, G44A, A45G
Kd: 67 ± 10 nM

B23: target 1 insU 3' of 20,insC 3' of 3 (mixed)
RNA 1: B1 RNA 1
RNA 2: B2 RNA 2 with A34U, G35A, A52C, C53A
Kd: 12.9 ± 1.3 nM

B24: target 1 insG 3' of 16,insG 3' of 16 (mixed)
RNA 1: B1 RNA 1
RNA 2: B11 RNA 2 with A39G, G40A, U42G, G44U
Kd: 22.5 ± 1.4 nM

B25: target 1 insA 3' of 22,insG 3' of 22 (mixed)
RNA 1: B1 RNA 1
RNA 2: B11 RNA 2 with C31A, A32G, U33C, G35U, G38A, A39G, G40A, U42G, G44U
Kd: 15.2 ± 0.9 nM

B26: target 1 insA 3' of 8,insG 3' of 7 (mixed)
RNA 1: B1 RNA 1
RNA 2: B11 RNA 2 with G38A, A39G, G41U, U43A, G44U, U46C, C47G
Kd: 13.3 ± 0.8 nM

B27: target 1 insU 3' of 14,insC 3' of 10 (mixed)
RNA 1: B1 RNA 1
RNA 2: B11 RNA 2 with G38A, A39U, G44C
Kd: 39 ± 10 nM

B28: target 1 insA 3' of 19,insU 3' of 13 (mixed)
RNA 1: B1 RNA 1
RNA 2: B11 RNA 2 with G35A, A36G, G37A, G41U, U42G, G44U
Kd: 35 ± 13 nM

B29: target 1 insU 3' of 20,insC 3' of 15 (mixed)
RNA 1: B1 RNA 1
RNA 2: B11 RNA 2 with A34U, G35A, A36G, G37A, A39C, G40A, U42G, G44U
Kd: 28 ± 2.2 nM

B30: target 1 insG 3' of 19,insC 3' of 9 (mixed)
RNA 1: B1 RNA 1
RNA 2: B11 RNA 2 with A34G, G35A, A36G, G37A, G44A, A45C
Kd: 78 ± 10 nM

B31: target 1 A1U,G12C (mixed)
RNA 1: B1 RNA 1
RNA 2: B3 RNA 2 with C51U
Kd: 17.5 ± 1.7 nM

B32: target 1 A1G,G13U (mixed)
RNA 1: B1 RNA 1
RNA 2: B3 RNA 2 with G39U, C40G, C51G
Kd: 41 ± 7 nM

B33: target 1 insA 3' of 6 (mixed)
RNA 1: B1 RNA 1
RNA 2: GGGAAUGGAUCCACAUCUACGAAUUCGUACCAUAGAGAGGUUAUCCAGCUCACCGAGAUCGGAAGAGCACACGU
Kd: 15 ± 1.3 nM

B34: target 1 insG 3' of 16,insU 3' of 9 (mixed)
RNA 1: B1 RNA 1
RNA 2: B11 RNA 2 with G44A, A45U
Kd: 28.9 ± 2.2 nM
